{
  "source": "the nanobody polyreactivity screen of Harvey et al. (2022)",
  "data": [
    {"test": "yeast display, Sf9 membrane polyspecificity reagent, FACS + sequencing; frameworks hold sequencing errors", "in_short": "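Nanobodies came from a synthetic yeast display library in Saccharomyces cerevisiae BJ5465, induced with galactose for 36–48 hours and stained for 1 hour at 4 °C with 10% biotinylated, detergent-solubilized Sf9 membrane reagent. Cells were enriched on streptavidin microbeads and then FACS-sorted, with low and high (top ~1%) gates set on anti-HA fluorescence for expression and streptavidin fluorescence for reagent binding. Each polyreactivity label reflects the gate a clone came from. Genes were amplified by colony PCR, sequenced by MiSeq 2 × 250 and filtered by CDR length.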", "values": [
      {"sequence": "QVQLVESGGGLVQAGGSLRLSCAASGSTFRTNAMGWYRQAPGKERELVAAISGSGSRTYYADSVKGRFTISRDNAKNTVYLQMNSLKPEDTAVYYCAAVYGGVGYRRREYWGQGTQVTVSS", "polyreactivity (PSR sort gate)": "high polyreactivity"},
      {"sequence": "QVQLVESGGGLVQAGGSLRLSCAASGSTFRTNAMGWYRQAPGKERELVAAITYRAGNTYYADSVKGRFTISRDNAKNTVYLQMNSLKPEDTAVYYCNAESLSFPARGRAYRYYYWGQGTQVTVSS", "polyreactivity (PSR sort gate)": "high polyreactivity"},
      {"sequence": "QVQLVESGGGLVQAGGSLRLSCAASGSTFRTYAIGWYRQAPAKERELVAAISRSGGRTYYADSVKGRFTISRDNAMNTVYLQMNSLKPEDTAVYYCAVGDTYTYDYWGQGTQVTVSS", "polyreactivity (PSR sort gate)": "high polyreactivity"},
      {"sequence": "QVQLVESGGGLVQAGGSLRLSCAASGSTFRTYTMGWYRQAPGKERELVAAGGGTYYADSVKGRFTISRDNAKNTVYLQMNSLKPEDTAVYYCAAGLPIHGLRGYEYDYWGQGTQVTVSS", "polyreactivity (PSR sort gate)": "low polyreactivity"},
      {"sequence": "QVQLVESGGGLVQAGGSLRLSCAASGSTFRVNAMAWYRHAPGKERELVADITNGGSTYYADSVKGRFTISRDNAKNTVYLQMNSLKPEDTAVYYCNARPSYLRFKWYSYDYWGQGTQVTVSS", "polyreactivity (PSR sort gate)": "high polyreactivity"},
      {"sequence": "QVQLVESGGGLVQAGGSLRLSCAASGSTFRVNAMGWYRQAPGKERELVAAIRKSGGSTYADSVKGRFTISRDNAKNTVYLQMNSLKPEDTAVYYCNADATAWLGWDDNYWGQGSQVTVSS", "polyreactivity (PSR sort gate)": "low polyreactivity"},
      {"sequence": "QVQLVESGGGLVQAGGSLRLSCAASGSTFRVNAMGWYRQAPGKERELVAAIRSSGGTTYYADSVQGRFTISRDNAKNTVYLQMNSLKPEDTAVYYCAAEGYRSWRGLRSRYYYWGQGTQVTVSS", "polyreactivity (PSR sort gate)": "high polyreactivity"},
      {"sequence": "QVQLVESGGGLVQAGGSLRLSCAASGSTFRVYAMGWYRQAPGKERELVATISWGGGRTYYADSVKGRFTISRDNAKNTVYLQMNSLKPEDTAVYYCAADQRWTTDQPTAGDYWGQGTQVTVSS", "polyreactivity (PSR sort gate)": "low polyreactivity"},
      {"sequence": "QVQLVESGGGLVQAGGSLRLSCAASGSTFRVYGMGWYRQAPGKERELDAAIRWIGGRTYYADSVKGRFTISRDNAKNTVYLQMNSLKAEDTAVYYCNARAGPVRFDYWGQGTQVTVSS", "polyreactivity (PSR sort gate)": "low polyreactivity"},
      {"sequence": "QVQLVESGGGLVQAGGSLRLSCAASGSTFRWNAMGWYRQAPGKERELVAAISGNGGSTYYADSVKGRFTISRDNAKNTVYLHMNTLKPEYNAVYYCAARGYFCSSYKYDYRGQGTQVTVSS", "polyreactivity (PSR sort gate)": "high polyreactivity"},
      {"sequence": "QVQLVESGGGLVQAGGSLRLSCAASGSTFRWNAMGWYRQAPGKERELVASITSGGSTNYADSVKGRFTISRDNAKNTVYLQMNSLKPEDTAVYYCNADVRRSTYYVWLYDYWGQGTQVTVSS", "polyreactivity (PSR sort gate)": "low polyreactivity"},
      {"sequence": "QVQLVESGGGLVQAGGSLRLSCAASGSTFRWNAMGWYRQAPWKERELVAAITWSGGRTYYADSVKGRFTISRDNAKNTVYLQMNSLKPEDTAVYYCAAVRGPEHWYDYYYWGQGTQVTVSS", "polyreactivity (PSR sort gate)": "high polyreactivity"},
      {"sequence": "QVQLVESGGGLVQAGGSLRLSCAASGSTFRWYAMGWYRQAPGKERELVAAISWSGSTTYYADSVKGRFTISRDNAKNTVYLQMNSLKPEDTAVYYCAAEVVFFGWNYDYWGQGTQVTVSS", "polyreactivity (PSR sort gate)": "high polyreactivity"},
      {"sequence": "QVQLVESGGGLVQAGGSLRLSCAASGSTFRWYTMGWYRQAPGKERELVAAITASGGSTFYADSVKGRFTISRDNAKNTVYLQMNSLKPEDTAVYYCAAVNRPRPRRSDYWGQGTQVTVSS", "polyreactivity (PSR sort gate)": "high polyreactivity"},
      {"sequence": "QVQLVESGGGLVQAGGSLRLSCAASGSTFRYAMGWYRQAPGKERELVATISSGGSTNYADSVKGRFTISRDNAKNTVYLQMNSLKPEDTAVYYCAADPYGGDNDKGDYWGQGTQVTVSS", "polyreactivity (PSR sort gate)": "low polyreactivity"},
      {"sequence": "QVQLVESGGGLVQAGGSLRLSCAASGSTFRYNALGWYRQAPGKERELVAAINYRGGSTYYADSVKGRFTISRDNAKNTVYLQMNSLKPEDTAVYYCNAVLPLAKYEYDSWGHGTQVTVSS", "polyreactivity (PSR sort gate)": "high polyreactivity"},
      {"sequence": "QVQLVESGGGLVQAGGSLRLSCAASGSTFRYNAMGWYRQAPGKERELVATITGSGGSTYYADSVKGRFTISRDNAKNTVYLQMNSLKPEDTAVYYCAAAYRGRYSWYYFPRYAYWGQGTQVTVSS", "polyreactivity (PSR sort gate)": "high polyreactivity"},
      {"sequence": "QVQLVESGGGLVQAGGSLRLSCAASGSTFRYNAMGWYRQAPWKERELVAAITSGGSTYYADSVKGRFTISRDNAKNTVYLQMNSLKPEDTAVYYCAALWQSRWYKMDYWGQGTQVTVSS", "polyreactivity (PSR sort gate)": "high polyreactivity"},
      {"sequence": "QVQLVESGGGLVQAGGSLRLSCAASGSTFRYNSMGWYRQAPGKDRELVAAISRIGGTTYADSVKGRFTISRDNAKNTVYLQMNSLNPEDTAVYYCARANWGYYGPEYGYWGQGTQVTVSS", "polyreactivity (PSR sort gate)": "high polyreactivity"},
      {"sequence": "QVQLVESGGGLVQAGGSLRLSCAASGSTFRYNTMGWDRQAPGKERELVAAISGGGGSTYYADSVKGRFTISRDNAKNTVYLQMNSLKPEDTAVYYCAKRHWYAGYVSSYTTRYDYWGQGTQVTVSS", "polyreactivity (PSR sort gate)": "low polyreactivity"},
      {"sequence": "QVQLVESGGGLVQAGGSLRLSCAASGSTFRYNTMGWYRQAPGKERELVAAISSGGGTHFADSVKGRFTISRDNAKNTVYLQMNSLKPEDTAVYYCAAQSRYRYQFYSGLEYDYWGQGTQVTVSS", "polyreactivity (PSR sort gate)": "low polyreactivity"},
      {"sequence": "QVQLVESGGGLVQAGGSLRLSCAASGSTFRYYAMGWYRQAPGKERELVAAISGTGSTYYADSVKGRFTISRDNAKNTVSLQMNSLKPEDTAVYYCGAYPRGSQRYNYWGQGTQVTVSS", "polyreactivity (PSR sort gate)": "high polyreactivity"},
      {"sequence": "QVQLVESGGGLVQAGGSLRLSCAASGSTFRYYAMGWYRQAPGKERELVAAISSSGGRTYYADSVKGRFTISRDNAKNTVYLQMNSLKPEDTAVYYCAALYLRYHYGTDFDYWGQGTKVTVSS", "polyreactivity (PSR sort gate)": "high polyreactivity"},
      {"sequence": "QVQLVESGGGLVQAGGSLRLSCAASGSTFRYYAMGWYRQAPGKERELVAAITYRGSSTYYADSVKGRFTISRDNAKNTVYLQMNSLKPEDTAVYYCARRYAGDYYYWGQGTQVTVSS", "polyreactivity (PSR sort gate)": "high polyreactivity"},
      {"sequence": "QVQLVESGGGLVQAGGSLRLSCAASGSTFRYYAMGWYRQAPGKERELVAAITYSGGRTYYADSVKGRFTISRDNAKNTVYLQMNSLKPEDTAVYYCAASFRAWSGNYWGQGTQVTVSA", "polyreactivity (PSR sort gate)": "high polyreactivity"},
      {"sequence": "QVQLVESGGGLVQAGGSLRLSCAASGSTFRYYAMGWYRQAPGKERELVARITSRAGRTYYADSVKGRFTLSRDNAKNTVYLQMNSLKPEDTAVYYCNTRDFSGYVHALSLYDYWGQGTQVTVSS", "polyreactivity (PSR sort gate)": "high polyreactivity"},
      {"sequence": "QVQLVESGGGLVQAGGSLRLSCAASGSTFRYYAMGWYRQAPGKERELVASISTGGRTYYADSVKGRFTISRDNAKNTVYLQMNSLKPEDTAVYYCAAQGYWIYNTAYGYWGQGTQVTVSS", "polyreactivity (PSR sort gate)": "high polyreactivity"},
      {"sequence": "QVQLVESGGGLVQAGGSLRLSCAASGSTFRYYAMGWYRQAPGKERELVASITSTGSTNYADSVKGRFTISRDNAKNTVYLQMNSLKPEDTAVYYCAAYRPYFGIAYGYWGQGTQVTVSS", "polyreactivity (PSR sort gate)": "high polyreactivity"},
      {"sequence": "QVQLVESGGGLVQAGGSLRLSCAASGSTFRYYAMGWYRQAPGKERELVAVIRNSGGSTYYADSVKGRFTISRDNAKNTVYLQKNSLKREDTAVYYCAARLYTFHRDYWGQGTQVTVSS", "polyreactivity (PSR sort gate)": "low polyreactivity"},
      {"sequence": "QVQLVESGGGLVQAGGSLRLSCAASGSTFRYYAMGWYRQAPGKERQLVAAISYRGGSTKYADSVKGRFTISRDNAKNTVYLQMNSLKPEDTAVYYCAADSYYDSKRYYWGQGTQVTVSS", "polyreactivity (PSR sort gate)": "high polyreactivity"},
      {"sequence": "QVQLVESGGGLVQAGGSLRLSCAASGSTFRYYAMGWYRQAPGKEWELVAVISTSGNTYYADSVKGRFTISRDNAKNTVYLQMNSLKPEDTAVYYCAARGVGGQISQEYDYWGQGTQVTVSS", "polyreactivity (PSR sort gate)": "low polyreactivity"},
      {"sequence": "QVQLVESGGGLVQAGGSLRLSCAASGSTFRYYSMGWYRQAPGKERELVAAITRSGTSTYYADSVKGRFTISRDTAKNTVYLQMNSLQPEDTAFYYCNAVTPYSREYDYWGQGTQVTVSS", "polyreactivity (PSR sort gate)": "high polyreactivity"},
      {"sequence": "QVQLVESGGGLVQAGGSLRLSCAASGSTFRYYTMGWYRQAPGKEREFVAAITSSGTSTYYADSVKGRFTISRDNAKNTVYLQMNSLKPEDTAVYYCNKVGIYGSRSRYDSWGQGTQVTVSS", "polyreactivity (PSR sort gate)": "high polyreactivity"},
      {"sequence": "QVQLVESGGGLVQAGGSLRLSCAASGSTFRYYTMGWYRQAPGKERELVARISRSGGSTYYADSVKGRFTISRDNAKNTVYLQMNSLKPEDTAVYYCAALYYVKPGQRYDYWGQGTQVTVSS", "polyreactivity (PSR sort gate)": "high polyreactivity"},
      {"sequence": "QVQLVESGGGLVQAGGSLRLSCAASGSTFRYYTMGWYRQAPGKERELVARISWSGGSTYYAYSVKGRFTISRDNAKYTVYLQMNSLKPEDTAVYYCNAVLFYFQTRDYWGQGTQVTVSS", "polyreactivity (PSR sort gate)": "high polyreactivity"},
      {"sequence": "QVQLVESGGGLVQAGGSLRLSCAASGSTFSANDMGWDRQAPGKEREFVAAITTSDDSTYYADSVKGRYTISRDNAKNTVYLQMNSLKPEDTAVYYCNAYSGYSFFGLCFFYKYDYWGQGTQVTVSS", "polyreactivity (PSR sort gate)": "low polyreactivity"},
      {"sequence": "QVQLVESGGGLVQAGGSLRLSCAASGSTFSDNAMGGYRQAAGKERELVAAISWTGGSTYADSVKGRFTISRDNAKNTVYLQMNRLKPEDTAVYYCAAGGDFDGNYWGQGTQVTVSS", "polyreactivity (PSR sort gate)": "low polyreactivity"},
      {"sequence": "QVQLVESGGGLVQAGGSLRLSCAASGSTFSDNAMGWYRQAPGKERELVAAINETGGSTYYADSVKGRFTISRDNAKNTVYLQMNSLKPEDTAVYYCNADIDPYGATYAIEYDYWGQGTQVTVSS", "polyreactivity (PSR sort gate)": "low polyreactivity"},
      {"sequence": "QVQLVESGGGLVQAGGSLRLSCAASGSTFSDYAMGWYRPEPGQERELVATITSTGDTNYADSVKGRFTISRDNAKNTVYLQMNSLKPEDTAVYYCAAQHKKYGKRGLWNNFGYWGQGTQVSVSS", "polyreactivity (PSR sort gate)": "low polyreactivity"},
      {"sequence": "QVQLVESGGGLVQAGGSLRLSCAASGSTFSEYAMGWYRQAPGKEREFVATITVRGGSTYYADSVKGRFTISRDNAKNTVYLQMNSLKPEDTAVYYCAADGSGYYDWYYYWGQGTQVTVSS", "polyreactivity (PSR sort gate)": "low polyreactivity"},
      {"sequence": "QVQLVESGGGLVQAGGSLRLSCAASGSTFSFYAMGWYRQAPGKERELVAAIRFSGTSTYADSVKGRFTISRDNAKNTVYLQMNSLKPEDTAVYYCAARRAVFYSQRYYRYDYWGQGTQVTVSS", "polyreactivity (PSR sort gate)": "high polyreactivity"},
      {"sequence": "QVQLVESGGGLVQAGGSLRLSCAASGSTFSGNAMGWYRQAPGKERELVAAISWSGDTTYYADSVKGRFTISRDNAKNTVYLQMNSLKPEDTAVYYCAVRYYWRRMNYWGQGTQVTVSS", "polyreactivity (PSR sort gate)": "high polyreactivity"},
      {"sequence": "QVQLVESGGGLVQAGGSLRLSCAASGSTFSGNAMGWYRQAPGKERELVAAITSSGGSTYYADSVKGRFTISRDNAKNTVYLQMNSLKPEDTAVYYCAAKSRRTRRSYYWGQGTQVTVSS", "polyreactivity (PSR sort gate)": "high polyreactivity"}
    ]}
  ]
}
